Biological target: Biotinylated peptide BubR1 WT (Q293 to R302) (human)
Test: pull-down

## GST-tagged BubR1 TPR (wild type) (from UniProt O60566 1-230) (domain or fragment)
  fold of protein bound against the W295A peptide: 5 fold

From doi:10.1101/2025.10.13.682252
